Tests used:
Experiment in all cases: malachite green Pi release
Type in all cases: biochemical, Arabidopsis thaliana
Settings in all cases: pH 7.2, 30 °C, 100 mM KCl, 0.8 mM MgCl2
[1] = substrate: O=P(O)(O)O[C@@H]1[C@@H](OP(=O)(O)O)[C@H](OP(=O)(O)OP(=O)(O)O)[C@@H](OP(=O)(O)O)[C@H](OP(=O)(O)OP(=O)(O)O)[C@@H]1OP(=O)(O)O
[2] = substrate: O=P(O)(O)O[C@@H]1[C@@H](OP(=O)(O)OP(=O)(O)O)[C@H](OP(=O)(O)O)[C@@H](OP(=O)(O)O)[C@@H](O)[C@H]1OP(=O)(O)O
[3] = substrate: O=P(O)(O)O[C@H]1[C@@H](OP(=O)(O)O)[C@H](OP(=O)(O)O)[C@@H](OP(=O)(O)OP(=O)(O)O)[C@H](OP(=O)(O)O)[C@H]1OP(=O)(O)O

B1: AtPFA-DSP1 (full-length) (Arabidopsis thaliana) (protein)
chain: MKLVEKTTTTEQDNGEDFCRTIIEVSEVNRNVFQAPGGEADPFRVVSGEELHLIPPLNFSMVDNGIFRSGFPDSANFSFLQTLGLRSIIYLCPEPYPESNLQFLKSNGIRLFQFGIEGNKEPFVNIPDHKIRMALKVLLDEKNHPVLIHCKRGKHRTGCLVGCLRKLQKWCLTSIFDEYQRFAAAKARVSDQRFMEIFDVSSFSHIPMSFSCSIR
notes: full-length (codon-optimized cDNA, Genscript); pDest-566, N-terminal 6xHis-MBP tag cut with TEV protease; E. coli
Km [1]: 44 µM
Km [2]: 78 µM
Km [3]: 60 µM

Source: publication PMC9038691, “A structural exposé of noncanonical molecular reactivity within the protein tyrosine phosphatase WPD loop” (Nature communications, 2022)
